One molecule from patent US20130289246A1 can be followed below.

Like-named read-outs stand apart in the source and are kept apart here.

What all share (experiment): ELISA, supernate
Assay [1] addresses first-generation H1 LAH construct H1frThrST (Influenza A virus (H1)).
Assay [2] has as its target first-generation H3 LAH construct H3frThrST (Influenza A virus (H3)).
Assay [3] concerns the target first-generation H1 LAH construct H1frThrST (Influenza A virus (H1)). The source holds these as a separate data set.

B1: mAb 5I17 (antibody, V domains shown)
VH: EVQLVESGGGVVQPGRSLRLSCAASGFSFSNYAMHWVRQAPGKGLEWVALISFDGSDKYYADSVKGRFTMSRDNSKNTLYLQMNSLRAEDTAVYYCARDEPYCGGDCFAFDVWGQGTMVTVS
VL: DIQLTQSPSSLSASAGDRVSMTCRASQIISSSLNWYQQKPGKAPKLLIYAASNLQSGVPSRFSGSGSGTDFTLTISSLQPEDFATYYCQQSYSTPPELTFGGGTKVDIKR
For B1, the OD was 0.07 OD in assay [1], 0.07 OD in assay [2] and 0.078 OD in assay [3].
